Measurements taken from patent publication US20250382344A1, “Soluble GLP1/GIP/NPY2 Receptor Triple Agonists” (Boehringer Ingelheim International GmH, priority 2024, published 2025).
Read-outs that look alike come from different tables or passages of the source. *1 amine or outer side, *2 acyl side, *3 side chain or, on linkers, in order; H or OH if unused. Where no end group is shown, it is not given here. Side-chain parts run from the residue outwards. [ ]: non-standard residue; d: D form. The star is where a group is joined. C18 diacid = O=C(O)CCCCCCCCCCCCCCCCC(=O)*; γGlu = O=C(O)[C@H](CCC(=O)[*:2])N[*:1]; εLys = N[C@@H](CCCCN[*:1])C(=O)[*:2]; NMeQ = CN[C@@H](CCC(N)=O)C(=O)O; AEEA = NCCOCCOCC(=O)O; Aib = CC(C)(N)C(=O)O; Ahx = NCCCCCC(=O)O

T1: hGIPR (Homo sapiens, UniProt P48546)
T1 construct: expressed in transfected cells; host or cells: CHO CRE-luciferase reporter cells
T1 sequence (P48546 22-466): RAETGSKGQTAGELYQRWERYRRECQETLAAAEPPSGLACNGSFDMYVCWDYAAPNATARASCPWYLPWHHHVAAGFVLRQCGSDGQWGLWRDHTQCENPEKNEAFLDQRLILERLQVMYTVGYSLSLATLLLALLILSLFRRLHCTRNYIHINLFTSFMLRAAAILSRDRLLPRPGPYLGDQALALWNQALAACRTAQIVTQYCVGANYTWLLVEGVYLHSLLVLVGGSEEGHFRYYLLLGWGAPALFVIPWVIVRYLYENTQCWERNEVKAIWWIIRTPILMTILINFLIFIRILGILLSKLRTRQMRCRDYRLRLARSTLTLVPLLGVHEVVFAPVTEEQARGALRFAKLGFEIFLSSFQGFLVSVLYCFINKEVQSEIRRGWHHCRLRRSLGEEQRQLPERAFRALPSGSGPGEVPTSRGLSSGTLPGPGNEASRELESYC

T2: human neuropeptide Y2 receptor (human, UniProt P49146 1-381)
T2 sequence (looked up): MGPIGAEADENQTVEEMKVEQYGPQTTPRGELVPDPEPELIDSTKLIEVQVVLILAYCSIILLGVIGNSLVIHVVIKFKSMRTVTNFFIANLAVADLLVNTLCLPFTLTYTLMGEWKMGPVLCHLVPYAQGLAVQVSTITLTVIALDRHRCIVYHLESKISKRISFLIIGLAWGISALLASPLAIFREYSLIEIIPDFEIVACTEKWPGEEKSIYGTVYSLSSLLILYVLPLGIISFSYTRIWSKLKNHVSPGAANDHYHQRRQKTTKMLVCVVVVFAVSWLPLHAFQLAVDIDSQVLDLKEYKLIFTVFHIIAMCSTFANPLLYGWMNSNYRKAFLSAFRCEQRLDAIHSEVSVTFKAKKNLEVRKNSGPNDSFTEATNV

T3: human neuropeptide Y2 receptor (human, UniProt P49146 1-381)
T3 sequence (looked up): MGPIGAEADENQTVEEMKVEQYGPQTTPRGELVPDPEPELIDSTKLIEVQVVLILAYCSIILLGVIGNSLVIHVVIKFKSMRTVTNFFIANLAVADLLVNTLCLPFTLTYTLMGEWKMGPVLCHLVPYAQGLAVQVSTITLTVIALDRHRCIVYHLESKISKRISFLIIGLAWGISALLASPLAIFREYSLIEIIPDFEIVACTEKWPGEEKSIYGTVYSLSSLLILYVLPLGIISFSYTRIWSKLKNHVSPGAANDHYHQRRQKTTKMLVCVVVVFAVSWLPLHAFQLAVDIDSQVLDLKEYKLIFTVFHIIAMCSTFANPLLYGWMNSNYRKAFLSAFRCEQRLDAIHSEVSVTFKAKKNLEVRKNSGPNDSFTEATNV


Tests used:
hGIPR = biological target: T1, hGIPR; test: hGIPR CreLuc assay in 0.5% and 100% plasma (CHO CRE-luciferase reporter cells); assay type: cell-based
[1] = Solubility in 0.1 M phosphate buffer at pH 7; assay type: physicochemical; conditions: 0.1 M phosphate buffer at pH 7, 10 mg/mL final peptide concentration, shaking 2 hours at room temperature, peptides as TFA-salts; measured sample pH 6.5-7.0
[2] = biological target: T2, human neuropeptide Y2 receptor; test: cell-based or functional assay
[3] = biological target: T3, human neuropeptide Y2 receptor; test: cell-based or functional assay; remark: listed apart in the source
[4] = 0.5% human plasma, read-out: hGIPR 0.5% hP

Row | Molecule | EC50, CreLuc reporter, 100% hP [3] [nM] | EC50, CreLuc reporter, 0.5% hP [3] [nM] | further results
1 | CC[C@H](C)[C@H](NC(=O)[C@H](CC(C)C)NC(=O)[C@H](Cc1c[nH]cn1)NC(=O)[C@H](CCCNC(=N)N)NC(=O)[C@@H](NC(=O)[C@H](Cc1ccccc1)NC(=O)[C@H](C)NC(=O)C(C)(C)NC(=O)[C@H](CCC(N)=O)NC(=O)[C@H](C)NC(=O)[C@H](CCC(N)=O)NC(=O)[C@H](CCCCN)NC(=O)[C@H](CCC(=O)O)NC(=O)[C@H](CC(C)C)NC(=O)C(C)(C)NC(=O)[C@@H](NC(=O)[C@H](CO)NC(=O)[C@H](Cc1ccc(O)cc1)NC(=O)[C@H](CC(=O)O)NC(=O)[C@H](CO)NC(=O)[C@@H](NC(=O)[C@H](Cc1ccccc1)NC(=O)[C@@H](NC(=O)CNC(=O)[C@H](CCC(=O)O)NC(=O)C(C)(C)NC(=O)[C@@H](N)Cc1ccc(O)cc1)[C@@H](C)O)[C@@H](C)O)[C@@H](C)CC)C(C)C)C(=O)N[C@@H](CC(N)=O)C(=O)N[C@@H](CCCCNC(=O)CC[C@H](NC(=O)CC[C@H](NC(=O)CC[C@H](NC(=O)[C@@H](N)CCCCNC(=O)CC[C@H](NC(=O)CC[C@H](NC(=O)CC[C@H](NC(=O)CCCCCCCCCCCCCCCCC(=O)O)C(=O)O)C(=O)O)C(=O)O)C(=O)O)C(=O)O)C(=O)O)C(=O)NC(C)(C)C(=O)N[C@H](C(=O)N[C@@H](CCCNC(=N)N)C(=O)N[C@@H](CCC(N)=O)C(=O)N[C@@H](CCCNC(=N)N)C(=O)N[C@@H](Cc1ccc(O)cc1)C(N)=O)[C@@H](C)O [Compound 168, Y-Aib-E-G-T-F-T-S-D-Y-S-I-Aib-L-E-K-Q-A-Q-Aib-A-F-V-R-H-L-I-N-K(1,3)-Aib-T-R-Q-R-Y-NH2.C18DA-gGlu-gGlu-gGlu-eLys-gGlu-gGlu-gGlu(1,2)] | – | – | EC50 (hGIPR; [4]): 0.2 nM; solubility at 2 h [1]: 8200 µg/mL
2 | CC[C@H](C)[C@H](NC(=O)[C@H](CC(C)C)NC(=O)[C@H](Cc1c[nH]cn1)NC(=O)[C@H](CCCNC(=N)N)NC(=O)[C@@H](NC(=O)[C@H](Cc1ccccc1)NC(=O)[C@H](C)NC(=O)C(C)(C)NC(=O)[C@H](CCC(N)=O)NC(=O)[C@H](C)NC(=O)[C@H](CCC(N)=O)NC(=O)[C@H](CCCCN)NC(=O)[C@H](CCC(=O)O)NC(=O)[C@H](CC(C)C)NC(=O)C(C)(C)NC(=O)[C@@H](NC(=O)[C@H](CO)NC(=O)[C@H](Cc1ccc(O)cc1)NC(=O)[C@H](CC(=O)O)NC(=O)[C@H](CO)NC(=O)[C@@H](NC(=O)[C@H](Cc1ccccc1)NC(=O)[C@@H](NC(=O)CNC(=O)[C@H](CCC(=O)O)NC(=O)C(C)(C)NC(=O)[C@@H](N)Cc1ccc(O)cc1)[C@@H](C)O)[C@@H](C)O)[C@@H](C)CC)C(C)C)C(=O)N[C@@H](CC(N)=O)C(=O)N[C@@H](CCCCNC(=O)CCCCCNC(=O)CC[C@H](NC(=O)CCCCCNC(=O)CC[C@H](NC(=O)CC[C@H](NC(=O)CC[C@H](NC(=O)CC[C@H](NC(=O)CCCCCCCCCCCCCCCCCCC(=O)O)C(=O)O)C(=O)O)C(=O)O)C(=O)O)C(=O)O)C(=O)NC(C)(C)C(=O)N[C@H](C(=O)N[C@@H](CCCNC(=N)N)C(=O)N[C@@H](CCC(N)=O)C(=O)N[C@@H](CCCNC(=N)N)C(=O)N[C@@H](Cc1ccc(O)cc1)C(N)=O)[C@@H](C)O [Compound 175, Y-Aib-E-G-T-F-T-S-D-Y-S-I-Aib-L-E-K-Q-A-Q-Aib-A-F-V-R-H-L-I-N-K(1,3)-Aib-T-R-Q-R-Y-NH2.C20DA-gGlu-gGlu-gGlu-gGlu-AHX-gGlu-AHX(1,2)] | – | – | EC50 (hGIPR; [4]): 0.2 nM; EC50 (hGIPR; 100% human plasma, read-out: hGIPR 100% hP): 5.6 nM; solubility at 2 h [1]: 8400 µg/mL
3 | Y[Aib]EGTFTSDYSI[Aib]LEKQAQ[Aib]AFVRHLINK([γGlu-γGlu-γGlu-εLys-γGlu-γGlu-γGlu-C18 diacid])[Aib]TRQRY-NH2 [Compound 168] | – | – | EC50, CreLuc reporter, 0.5% hP [2]: 27.7 nM
4 | YXEGTFTSDYSIXLEKQAQXAFVRHLINKXTRQRY (Aib at 2, 13, 20, 30; Lys29 epsilon-amino acylated with C18DA-gGlu-gGlu-gGlu-gGlu-gGlu-gGlu-gGlu; C-terminal amide) [Compound 38] | 141 | – | –
5 | YXEGTFTSDYSIXLEKQAQXAFVRHLINKXTRQRY (Aib at 2, 20, 30; aMeL at 13; Lys29 epsilon-amino acylated with C20DA-gGlu-gGlu-gGlu-gGlu-gGlu-gGlu; C-terminal amide) [Compound 49] | 763 | – | –
6 | YXEGTFTSDYSIXLEKQAQXAFVRHLLNKXTRQRY (Aib at 2, 13, 20, 30; Lys29 epsilon-amino: C18DA-gGlu-gGlu-gGlu-gGlu-gGlu-gGlu-eLys; C-terminal amide) [Compound 107] | – | – | EC50, CreLuc reporter, 0.5% hP [2]: 13.3 nM; EC50, CreLuc reporter, 100% hP [2]: 20.3 nM
7 | YXEGTFTSDYSIXLEKQAQXAFVRHLINKXTRQRY (Aib at 2, 13, 20, 30; Lys29 epsilon-amino acylated with C18DA-gGlu-gGlu-gGlu-gGlu-gGlu-AHX; C-terminal amide) [Compound 13] | 121 | 18.7 | –
8 | YXEGTFTSDYSIXLEKQAQXEFVRHLINKXTRQRY (Aib at 2, 13, 20, 30; Lys29 epsilon-amino: C18DA-gGlu-gGlu-gGlu-gGlu-gGlu-OEG-OEG; C-terminal amide) [Compound 98] | – | – | EC50, CreLuc reporter, 0.5% hP [2]: 27.3 nM; EC50, CreLuc reporter, 100% hP [2]: 202 nM
9 | YXEGTFTSDYSIXLEKQAEXAFVRHLINKXTRQRY (Aib at 2, 13, 20, 30; Lys29 epsilon-amino acylated with C18DA-gGlu-gGlu-gGlu-gGlu-gGlu-gGlu-eLys; C-terminal amide) [Compound 10] | 28.2 | 26.3 | –
10 | YXEGTFTSDYSIXLEKQAQXAFVRHLINKXTRQRY (Aib at 2, 13, 20, 30; Lys29 epsilon-amino: C18DA-gGlu-gGlu-gGlu-gGlu-gGlu-OEG-OEG; C-terminal amide) [Compound 117] | – | – | EC50, CreLuc reporter, 100% hP [2]: 39.2 nM
11 | YXEGTFTSDYSIXLEAQAQXAFVRHLINKXTRQRY (Aib at 2, 13, 20, 30; Lys29 epsilon-amino: C18DA-gGlu-gGlu-gGlu-gGlu-gGlu-gGlu-eLys; C-terminal amide) [Compound 123] | – | – | EC50, CreLuc reporter, 0.5% hP [2]: 51.6 nM; EC50, CreLuc reporter, 100% hP [2]: 232 nM
12 | Y[Aib]EGTFTSDYSI[Aib]LEKQAQ[Aib]AFVRHLINK([γGlu-γGlu-εLys-γGlu-γGlu-γGlu-γGlu-C18 diacid])[Aib]TRQRY-NH2 [Compound 34] | 28 | 14.6 | –
13 | Y[Aib]EGTFTSDYSI[Aib]LDEQAQ[Aib]AFVRHLINK([εLys-γGlu-γGlu-γGlu-γGlu-γGlu-C18 diacid])[Aib]TRQRY-NH2 [Compound 108] | – | – | EC50, CreLuc reporter, 0.5% hP [2]: 20.3 nM; EC50, CreLuc reporter, 100% hP [2]: 120 nM
14 | Y[Aib]EGTFTSDYSI[Aib]LEKQAQ[Aib]AFVRHLINK([Ahx-γGlu-γGlu-γGlu-γGlu-γGlu-γGlu-C18 diacid])[Aib]TRQRY-NH2 [Compound 9] | 75.4 | 25.1 | –
15 | Y[Aib]EGTFTSDYSI[Aib]LEKQAQ[Aib]AFVRHLINK([AEEA-γGlu-γGlu-γGlu-γGlu-γGlu-γGlu-C18 diacid])[Aib]TRQRY-NH2 [Compound 47] | 72.6 | 19.9 | –
16 | Y[Aib]EGTFTSDYSI[Aib]LEKQAQ[Aib]AFVRHLINK([γGlu-γGlu-γGlu-γGlu-γGlu-γGlu-C18 diacid])[Aib]TR[NMeQ]RY-NH2 [Compound 2] | 258 | 89.9 | –
17 | Y[Aib]EGTFTSDYSI[Aib]LEKQAQ[Aib]EFVRHLINK([εLys-γGlu-γGlu-γGlu-γGlu-γGlu-γGlu-γGlu-C18 diacid])[Aib]TRQRY-NH2 [Compound 30] | 81.1 | 33.9 | –
